The labels stand for the following.
B1: LK-RB1-5 (antibody, human IgG4 S228P, kappa, V domains shown)
VH: QVQLQQPGAELVKPGASVKLSCKASGYTFTDFWIHWVKQRPGQGLEWIGMIHPNSGSTNFNEKFRAKATLTVDKSSSTAYMRLSSLTSEDSAVYYCARSGDGYSNPMDYWGQGTSVTVSS
VL: QIVLSQSPAILSASPGEKVTLTCRASSSVSYMHWYQQKPGSSPKPWIYATSNLASGVPVRFSGSGSGTSYSLTISRMQTEDAATYYCQQWRRSPYTFGGGTKLEIKR
B2: LK-RB1-11 (antibody, human IgG4 S228P, kappa, V domains shown)
VH: QVTLKESGPGILQPSQTLSLTCSFSGFSLKTSGMSVGWIRQPSGKGLEWLAHIWWNDDKYYNPVLKGRLTISKDTSNNLVFLKIASVVSTDTATYYCVRYGNSHGYWYFDVWGTGTTVTVSS
VL: NIVLTQSPASLAVSLGQRATISCRASESVDSYGNNFIHWYQQKPGQPPKVLIYYASNLEAGVPARFSGSGSRTDFTLTIDPVEAEDAATYYCQQNNEDPYTFGGGTKLEIER
B3: LK-RB2-29 (antibody, human IgG4 S228P, kappa, V domains shown)
VH: QVQLQQSGAELARPGASVKLSCKASGYTFTSYWMQWVKQRPGQGLEWIGAIYPGDGDTRYTQKFKGKATLTADKSSSTAYMQLSSLASEDSAVYYCARGYYGSSYADYFDYWGQGTTLTVSS
VL: DIQMTQSPASLSASVGETVTITCRASGNIHNYLAWYQQKQGKSPQLLVYNAKTLADGVPSRFSGSGSGTQYSLKINSLQPEDFGSYYCQHFWSTPPTFGGGTKLEIKR
B4: LK-RB2-41 (antibody, human IgG4 S228P, kappa, V domains shown)
VH: EVQLQLSGPELVKPGASVKMSCKASGYTFTDYNMHWVKQSHGKSLEWIGYINPNNGGTTYNQKFKGKATLTVNKSSSTAYMELRSLTSEDSAVYYCARAPYYGSSYLLAYWGQGTLVTVSA
VL: DIVMTQSHKFMSTSVGDRVSITCKASQDVSTAVAWYQQKPGQSPKLLIYSASYRYTGVPDRFTGSGSGTDFTFTISSVQAEDLAIYYCQQHYSIPWTFGGGTKLEIKR
B5: LK-RB2-42 (antibody, human IgG4 S228P, kappa, V domains shown)
VH: EFQLQQSGPELVKPGASVKISCKASGYSFTDYNMNWVKQSNGKSLDWIGIINPKYGTTAYNQKLRDKATLTVDQSSSTAYMQLNSLTSEDSAVYYCASLNWDEGFAYWGQGTLVTVSP
VL: DVLMTQTPLSLPVSLGDQASISCRSSQSIVHSNGNTYLEWYLQKPGQPPKLLIYKVSNRFSGVPERFSGSGSGTDFTLKINRVEAEDLGVYYCFQGSLVPPTFGGGTKLEIKR
B6: LK-RB2-31 (antibody, human IgG4 S228P, kappa, V domains shown)
VH: QVQLQQPGAELVKPGASMKLSCKASGYTFTTYYMYWVKQRPGLGLEWIGGINPSNGGTTFNEKFKNKATLTVDKSSSTAYMQLRSLTSEDSAVYYCTRWRFFDVWGAGTTVTVSS
VL: SIVMTQTPEFLLVSAGDRVTITCKASQSVNNDVAWFQQKPGQSPKLLIYYASNRYTGVPDRFTGSGYGTDFTFTISTVQAEDLAIYFCQQDYSSPPTFGGATKLEIKR
B7: LK-RB2-30 (antibody, human IgG4 S228P, kappa, V domains shown)
VH: EVQLVESGGGLVQPGGSLKLSCAASGFTFNTDGMSWVRQTPDKRLELVAIINSNGGSTYYPDSVKGRFTISRDNAKNTLYLQMSSLKSEDTAMYYCAREGSYGSWFAYWGQGTLVTVSA
VL: DIQMTQSPASLSVSVGETVTITCRASENINNNLAWYHQKQGKSPQLLVYAATNLADGVPSRFSGSGSGTQYSLKINSLQSEDFGSYYCQHFWGTPFTFGGGTKLEIKR
B8: LK-RB2-27 (antibody, human IgG4 S228P, kappa, V domains shown)
VH: DVKLVESGGGLVKPGGSLKLSCAASGFTFSSYSMSWVRQTPEKRLEWVATISTGGSYTYYPDSVKGRFTISRDNAKNTLYLQMSSLKSEDTAMFYCTRGSMDYWGQGTSVTVSS
VL: DILMTQSPSSMSVSLGDTVSITCHASQDISSNIGWLQQKPGNSFKGLIYHGTNLEDGVPSRFSGSGSGADYSLTISSLESEDFADYYCVQYAQFPYTFGGGTKLEIKR
B9: LK-RB2-34 (antibody, human IgG4 S228P, kappa, V domains shown)
VH: B8 VH with L4V, G55S, P61S
VL: B8 VL with T52I
B10: LK-RB2-28 (antibody, human IgG4 S228P, kappa, V domains shown)
VH: B8 VH with V64M
VL: B8 VL with T22A
B11: LK-RB2-25 (antibody, human IgG4 S228P, kappa, V domains shown)
VH: QVQLKESGPGLVAPSQSLSITCTVSGFSLTSYGVHWVRQPPGKGLEWLGVIWAGGSTKYNSALMSRLSINKDNSKSQVFLKMNSLQTDDTAMYYCARDQMVRSAMDYWGQGTSVTVSS
VL: DIQMIQSPSSMFASLGDRVSLSCRASQGIRGNLDWYQQKPGGTIKLLIYSTSNLNSAVPSRFSGSGSGSDYSLTISNLESEDFADYYCLQRNASPYTFGGGTKLEIKR
B12: LK-RB2-26 (antibody, human IgG4 S228P, kappa, V domains shown)
VH: B11 VH with K58D, S61A, L63F, M64I, S68N, N70S, N73I, K75E, L80F, K81R
VL: B11 VL
B13: LK-RB2-32 (antibody, human IgG4 S228P, kappa, V domains shown)
VH: DVQLQESGPGLVKPSQSLSLTCSVTGYSITSGYYWNWIRQFPGNKLEWMGYISFDGSNHYNPSLRNRISITRDTFKNQFFLKLNSVTTEDTATFYCTRRDYNWFAYWGQGTLVTVSA
VL: DIVLTQSPVTLSVTPGDSVSLSCRASQNINKNLHWYQQRSHESPRLLIKYVSQSISGIPSRFSGSGSGTDFTLSINSVETEDFGMYFCQQSNSWPLTFGAGTKLELRR

Changes are numbered by the printed parent chain.

In the first assay the target is Rhesus LILRB1 (NP_001035762.2) on CHOK1 cells (rhesus macaque) (UniProt F7H3G7). The assay can be described thus: flow cytometry on CHOK1-rhesus LILRB1 (NP_001035762.2) cells.
With B1, the EC50 was 1.08 nM.

A further assay deals with Rhesus LILRB1 (NP_001035762.2) protein (rhesus macaque) (UniProt F7H3G7). The assay can be described thus: ELISA on rhesus LILRB1 (NP_001035762.2) protein.
For B1, the EC50 was found to be 0.05 nM.

On to B2, for which the EC50 was determined as 0.08 nM.

The next assay addresses Cynomolgus LILRB2 on CHOK1 cells (cynomolgus). The assay can be described thus: flow cytometry on CHOK1-cyno LILRB2 cells.
Molecule B3 yielded an EC50 of 2.09 nM. B4 gave an EC50 of 1.5 nM. Take B5: the EC50 turned out to be 2.86 nM.

B6 came in with an EC50 of 1.59 nM. In the case of B7, the EC50 is 1.04 nM. Molecule B8 yielded a 50% effective concentration (EC50) of 2.14 nM. As to B9, the EC50 is 2.3 nM. With B10, the EC50 is 2.03 nM. B11 gave a 50% effective concentration (EC50) of 1.48 nM. Still for that read-out and setting: the value for B12 was 2.11 nM; that for B13 was 5.72 nM.
